Experimental findings from PMC1783847 are described below.

The assay deals with Bluetongue virus serotype 10 outer capsid protein VP2, unmodified full-length (Bluetongue virus serotype 10 (BTV-10)). The assay can be described thus: SDS-PAGE of non-denatured samples with western blot.

Substance “Bluetongue virus serotype 10 outer capsid protein VP2, unmodified full-length (natural protein)” showed a stoichiometry N of 3.
